Measured values taken from US20250332277A1 (Eli Lilly, published 2025).

Experiments:
[1] = molecular target: T1, human PTK-7 on cells (OV90-PTK-7, NCI-H446, OVCAR-3) (human, UniProt Q13308 31-1070); test: cell-based or functional assay
T1 sequence: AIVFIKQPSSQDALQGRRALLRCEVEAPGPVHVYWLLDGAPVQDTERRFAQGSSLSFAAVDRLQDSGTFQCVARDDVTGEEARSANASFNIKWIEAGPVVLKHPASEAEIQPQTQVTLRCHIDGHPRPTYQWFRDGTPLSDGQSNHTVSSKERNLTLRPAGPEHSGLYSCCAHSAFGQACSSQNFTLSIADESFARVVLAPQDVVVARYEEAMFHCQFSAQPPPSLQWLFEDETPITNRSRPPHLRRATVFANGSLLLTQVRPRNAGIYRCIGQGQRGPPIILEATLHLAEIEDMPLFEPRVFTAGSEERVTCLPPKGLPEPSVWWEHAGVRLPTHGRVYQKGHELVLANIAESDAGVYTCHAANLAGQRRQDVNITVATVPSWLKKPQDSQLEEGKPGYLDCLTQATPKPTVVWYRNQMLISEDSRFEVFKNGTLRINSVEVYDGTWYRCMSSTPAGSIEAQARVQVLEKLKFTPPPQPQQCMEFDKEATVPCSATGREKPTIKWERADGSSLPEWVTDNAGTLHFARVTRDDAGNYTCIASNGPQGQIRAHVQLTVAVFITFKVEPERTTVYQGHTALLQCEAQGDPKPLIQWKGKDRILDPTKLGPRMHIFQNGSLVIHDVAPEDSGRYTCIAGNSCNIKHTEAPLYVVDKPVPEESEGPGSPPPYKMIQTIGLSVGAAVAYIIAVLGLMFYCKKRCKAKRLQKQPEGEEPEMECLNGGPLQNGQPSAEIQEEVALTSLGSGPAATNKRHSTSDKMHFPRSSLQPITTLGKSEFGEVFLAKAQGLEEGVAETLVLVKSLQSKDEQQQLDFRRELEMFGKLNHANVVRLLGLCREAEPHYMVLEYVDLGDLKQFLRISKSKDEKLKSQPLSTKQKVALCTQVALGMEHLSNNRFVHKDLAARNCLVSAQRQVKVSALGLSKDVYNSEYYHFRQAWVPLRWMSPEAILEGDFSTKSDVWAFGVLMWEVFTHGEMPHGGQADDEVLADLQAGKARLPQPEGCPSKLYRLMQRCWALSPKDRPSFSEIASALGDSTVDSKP

[2] = molecular target: T2, recombinant human PTK7 (Acro Biosystems Cat. No. PT7-H52H3) (human, UniProt Q13308 31-704); test: SPR, Biacore 8K+, ADC captured by anti-human Fc, human PTK7 as analyte, 37 C, 1:1 model
T2 construct: Bought recombinant protein; also called human PTK7 analyte
T2 sequence: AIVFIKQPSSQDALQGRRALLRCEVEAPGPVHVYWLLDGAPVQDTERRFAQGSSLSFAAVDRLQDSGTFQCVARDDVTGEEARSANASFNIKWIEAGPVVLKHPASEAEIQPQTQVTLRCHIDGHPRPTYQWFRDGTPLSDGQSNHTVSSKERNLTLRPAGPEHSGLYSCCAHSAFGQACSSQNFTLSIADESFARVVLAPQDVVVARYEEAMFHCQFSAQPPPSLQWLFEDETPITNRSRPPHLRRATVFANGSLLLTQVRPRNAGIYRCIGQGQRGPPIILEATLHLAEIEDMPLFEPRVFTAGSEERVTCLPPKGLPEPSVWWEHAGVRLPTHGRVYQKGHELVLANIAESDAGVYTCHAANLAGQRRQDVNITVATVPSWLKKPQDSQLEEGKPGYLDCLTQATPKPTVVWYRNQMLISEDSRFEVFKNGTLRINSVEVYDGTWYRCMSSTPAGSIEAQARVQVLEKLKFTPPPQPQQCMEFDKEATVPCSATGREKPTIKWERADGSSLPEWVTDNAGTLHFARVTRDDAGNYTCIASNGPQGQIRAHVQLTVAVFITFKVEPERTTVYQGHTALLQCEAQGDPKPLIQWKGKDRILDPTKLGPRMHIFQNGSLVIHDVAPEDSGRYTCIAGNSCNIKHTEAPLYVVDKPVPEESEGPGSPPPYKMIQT
Description: A Biacore 8K+ instrument (Cytiva, Marlborough, MA) was used to determine kinetics and affinity parameters for the binding interactions of ADCs binding to recombinant human PTK7 (Acro Biosystems Cat. No. PT7-H52H3, Newark, DE).
In each analysis cycle, a different ADC was captured on flow cell 2 of each channel by injecting a 5 μg/mL solution at 10 μL/min for 2 minutes. After capture, the same analyte was injected on flow cells 1 and 2 in all 8 channels for 2 minutes at 30 μL/min and dissociation was monitored for 10 minutes. After dissociation, all surfaces were regenerated with three consecutive 1-minute injections of 75 mM phosphoric acid at 10 μL/min. ADC capture and analyte cycles were repeated to obtain human PTK7 analyte binding of each ADC at analyte concentrations of 0, 2.47, 7.41, 22.2, 66.7, 200, and 600 nMs.
Sensorgram data were reference subtracted and blank subtracted, then globally fit with the default 1:1 binding model in Biacore Insight Evaluation Software v3.0.12.15655, as shown in Table 4.

Kd [2]: 101 nM | koff [2]: 0.0372 s⁻¹ | kon [2]: 368000 M⁻¹ s⁻¹
B1: Ab4-PSAR10-VA-exatecan (other)
heavy: EVQLVESGGGLVKPGGSLRLSCAASGFTFSSYSMNWVRQAPGKGLEWVSSIDSSSSFIYYADSVKGRFTISRDNAKNSLYLQMNSLRAEDTAVYYCARGTGLFDFWGQGTLVTVSSASTKGPSVFPLAPSSKSTSGGTAALGCLVKDYFPEPVTVSWNSGALTSGVHTFPAVLQSSGLYSLSSVVTVPSSSLGTQTYICNVNHKPSNTKVDKRVEPKSCDKTHTCPPCPAPEAAGGPSVFLFPPKPKDTLMISRTPEVTCVVVSVSHEDPEVKFNWYVDGVEVHNAKTKPREEQYNSTYRVVSVLTVLHQDWLNGKEYKCKVSNKALPAPIEKTISKAKGQPREPQVYTLPPSREEMTKNQVSLTCLVKGFYPSDIAVEWESNGQPENNYKTTPPVLDSDGSFFLYSKLTVDKSRWQQGNVFSCSVMHEALHNHYTQKSLSLSPGK
light: EIVLTQSPGTLSLSPGERATLSCRASQSFSSSYLAWYQQKPGQAPRLLIYGASSRATGIPDRFSGSGSGTDFTLTISRLEPEDFAVYYCQQYGRTPWTFGQGTKVEIKRTVAAPSVFIFPPSDEQLKSGTASVVCLLNNFYPREAKVQWKVDNALQSGNSQESVTEQDSKDSTYSLSSTLTLSKADYEKHKVYACEVTHQGLSSPVTKSFNRGEC
modifications: PSAR10-VA-exatecan linker-payload (Formula XV) on cysteine thiols after full reduction of the antibody (DAR 8 procedure); positions not stated for this ADC
notes: Antibody-drug conjugate of Ab4; also called Ab4-VA-Exatecan
Cytotoxicity IC50, OVCAR-3 cells (CellTiter-Glo, 7 days) [1]: 2.02 nM
